What was measured:
the FcγR = experiment: fluorescence correlation spectroscopy
[1] = target: Human Recombinant FcγR receptor IIA/CD32a (human) (UniProt P12318); experiment: ELISA
Sequence of UniProt P12318 (P12318 34-217): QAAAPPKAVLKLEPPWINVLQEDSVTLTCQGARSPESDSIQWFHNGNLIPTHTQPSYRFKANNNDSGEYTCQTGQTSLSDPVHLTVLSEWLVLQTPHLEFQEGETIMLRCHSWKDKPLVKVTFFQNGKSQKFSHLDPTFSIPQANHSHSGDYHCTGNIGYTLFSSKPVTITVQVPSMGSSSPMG

| Substance | stoichiometry N (the FcγR) | EC50 [1] [nM] |
| --- | --- | --- |
| human IgG1 mAb C11-LALA (antibody) | 1 |  |
| human IgG1 mAb N5-i5-LALA (antibody) | 1 |  |
| immune complex of C11-LALA with FLSC |  | 0.6 |
| immune complex of N5-i5-LALA with FLSC |  | 6 |
